Reference: PMC9482650, “Quantitative fragmentomics allow affinity mapping of interactomes” (Nature Communications, 2022)
Values belong to the binder of their own block, whether it stands above or below them.

Assays:
Test in all cases: holdup assay
Design in all cases: key: below the threshold = too weak to quantify, mostly under pKd 3.1 to 4
[1] = target: T1, ARHGEF11, O15085
T1 sequence (O15085 42-136, limits assumed, looked up): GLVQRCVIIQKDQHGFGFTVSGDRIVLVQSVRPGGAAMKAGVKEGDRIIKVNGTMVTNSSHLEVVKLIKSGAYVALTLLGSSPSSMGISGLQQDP

[2] = target: NHERF2_2, Q15599
[3] = target: DLG4_1, P78352
[4] = target: GRIP2_3, Q9C0E4
[5] = target: T2, RADIL, Q96JH8
T2 sequence (Q96JH8 971-1071, limits assumed, looked up): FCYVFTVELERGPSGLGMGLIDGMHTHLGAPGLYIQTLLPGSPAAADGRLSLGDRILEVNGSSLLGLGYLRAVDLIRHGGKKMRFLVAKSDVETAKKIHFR

[6] = target: T3, ARHGAP21, Q5T5U3
T3 sequence (Q5T5U3 45-169, limits assumed, looked up): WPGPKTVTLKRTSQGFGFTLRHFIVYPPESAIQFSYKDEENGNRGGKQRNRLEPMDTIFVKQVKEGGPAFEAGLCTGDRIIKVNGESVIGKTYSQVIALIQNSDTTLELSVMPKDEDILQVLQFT

[7] = target: T4, TX1BP3, O14907
T4 sequence (O14907 10-122, limits assumed, looked up): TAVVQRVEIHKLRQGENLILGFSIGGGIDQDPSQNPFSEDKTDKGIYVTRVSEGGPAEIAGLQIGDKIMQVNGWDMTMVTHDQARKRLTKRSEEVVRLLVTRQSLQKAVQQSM

[8] = target: LIMK2, P53671
[9] = target: IL16_1, Q14005
[10] = target: T5, RAPGEF6, Q8TEU7
T5 sequence (Q8TEU7 525-625, limits assumed, looked up): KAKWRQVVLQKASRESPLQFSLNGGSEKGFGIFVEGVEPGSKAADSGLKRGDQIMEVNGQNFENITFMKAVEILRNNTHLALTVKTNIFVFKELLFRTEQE

[11] = target: T6, SYNJ2BP, P57105
T6 sequence (P57105 8-110, limits assumed, looked up): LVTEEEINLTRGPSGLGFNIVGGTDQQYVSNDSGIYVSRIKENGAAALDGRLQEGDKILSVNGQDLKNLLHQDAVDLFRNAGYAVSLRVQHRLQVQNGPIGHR

[12] = target: PDZRN4_1, Q6ZMN7
[13] = target: MAGI2_3, Q86UL8
[14] = target: MAGI1_1, Q96QZ7
[15] = target: T7, APBA2_1, Q99767
T7 sequence (Q99767 563-664, limits assumed, looked up): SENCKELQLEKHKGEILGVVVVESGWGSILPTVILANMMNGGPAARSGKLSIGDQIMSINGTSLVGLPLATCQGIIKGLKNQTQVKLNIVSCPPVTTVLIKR

[16] = target: DLG2_3, Q15700
[17] = target: GRIP2_6, Q9C0E4
[18] = target: T8, SNTG1, Q9NSN8
T8 sequence (Q9NSN8 52-150, limits assumed, looked up): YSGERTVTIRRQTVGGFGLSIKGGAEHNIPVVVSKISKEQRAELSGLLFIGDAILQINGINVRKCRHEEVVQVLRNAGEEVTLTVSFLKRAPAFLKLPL

[19] = target: SCRIB_1, Q14160
[20] = target: DLG4_2, P78352
[21] = target: HTRA1, Q92743
[22] = target: T9, LIN7A, O14910
T9 sequence (O14910 103-200, limits assumed, looked up): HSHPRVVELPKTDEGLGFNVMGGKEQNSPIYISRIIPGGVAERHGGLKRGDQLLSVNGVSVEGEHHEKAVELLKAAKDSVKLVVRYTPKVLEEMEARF

[23] = target: T10, DLG3_2, Q92796
T10 sequence (Q92796 221-321, limits assumed, looked up): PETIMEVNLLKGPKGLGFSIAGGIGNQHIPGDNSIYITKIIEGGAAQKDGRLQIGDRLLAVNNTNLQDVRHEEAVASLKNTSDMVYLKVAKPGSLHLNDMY

[24] = target: PTPN3, P26045
[25] = target: DLG2_2, Q15700
[26] = target: MAST1, Q9Y2H9
[27] = target: PARD3_3, Q8TEW0
[28] = plain residues with an end cap or a label only (N-terminal biotin on a linker: ttds)
[29] = plain residues with an end cap or a label only (N-terminal biotin on a linker: ado-ado)
[30] = plain residues with an end cap or a label only (N-terminal biotin on a linker: ahx)

Sequence of GRIP2_6, Q9C0E4 (Q9C0E4 648-740): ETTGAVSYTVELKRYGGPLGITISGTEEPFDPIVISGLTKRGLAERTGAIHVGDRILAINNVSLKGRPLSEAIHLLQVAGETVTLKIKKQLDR
Sequence of MAGI1_1, Q96QZ7 (Q96QZ7 1-106): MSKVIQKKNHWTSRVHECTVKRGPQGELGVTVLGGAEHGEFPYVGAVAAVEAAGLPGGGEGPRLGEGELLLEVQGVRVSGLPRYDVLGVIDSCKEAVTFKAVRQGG
Sequence of MAGI2_3, Q86UL8 (Q86UL8 600-682): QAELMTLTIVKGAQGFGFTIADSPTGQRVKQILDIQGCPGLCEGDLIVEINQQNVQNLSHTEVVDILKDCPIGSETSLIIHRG
Sequence of PDZRN4_1, Q6ZMN7 (Q6ZMN7 213-318): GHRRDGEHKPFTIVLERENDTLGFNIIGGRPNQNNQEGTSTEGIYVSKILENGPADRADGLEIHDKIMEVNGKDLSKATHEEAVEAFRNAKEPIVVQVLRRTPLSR
Sequence of PTPN3, P26045 (P26045 505-587): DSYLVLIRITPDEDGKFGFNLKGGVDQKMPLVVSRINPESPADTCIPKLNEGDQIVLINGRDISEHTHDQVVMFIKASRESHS
Sequence of DLG4_1, P78352 (P78352 62-152): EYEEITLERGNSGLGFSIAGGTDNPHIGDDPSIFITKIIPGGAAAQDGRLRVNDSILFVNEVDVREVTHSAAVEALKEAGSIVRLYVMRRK
Sequence of LIMK2, P53671 (P53671 143-248): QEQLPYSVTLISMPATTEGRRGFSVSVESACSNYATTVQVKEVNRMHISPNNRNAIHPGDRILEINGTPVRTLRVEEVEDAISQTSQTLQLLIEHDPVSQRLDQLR
Sequence of IL16_1, Q14005 (Q14005 210-306): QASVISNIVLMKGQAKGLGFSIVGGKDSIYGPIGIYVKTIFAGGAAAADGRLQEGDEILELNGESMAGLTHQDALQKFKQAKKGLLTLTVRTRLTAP
Sequence of MAST1, Q9Y2H9 (Q9Y2H9 962-1065): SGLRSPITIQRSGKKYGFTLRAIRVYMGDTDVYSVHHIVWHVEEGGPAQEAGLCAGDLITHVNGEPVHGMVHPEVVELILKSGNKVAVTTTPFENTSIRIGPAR
Sequence of PARD3_3, Q8TEW0 (Q8TEW0 582-685): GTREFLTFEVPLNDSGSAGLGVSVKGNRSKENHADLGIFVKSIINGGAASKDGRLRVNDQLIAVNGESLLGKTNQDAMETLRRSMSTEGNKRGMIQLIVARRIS
Sequence of NHERF2_2, Q15599 (Q15599 142-238): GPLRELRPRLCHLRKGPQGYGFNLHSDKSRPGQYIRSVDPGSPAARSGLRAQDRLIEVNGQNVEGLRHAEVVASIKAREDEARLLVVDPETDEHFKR
Sequence of GRIP2_3, Q9C0E4 (Q9C0E4 238-339): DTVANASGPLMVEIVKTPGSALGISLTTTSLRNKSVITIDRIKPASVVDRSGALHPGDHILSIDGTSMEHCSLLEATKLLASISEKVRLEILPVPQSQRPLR
Sequence of SCRIB_1, Q14160 (Q14160 718-814): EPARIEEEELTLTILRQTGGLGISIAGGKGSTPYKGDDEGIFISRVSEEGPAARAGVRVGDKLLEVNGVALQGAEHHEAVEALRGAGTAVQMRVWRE
Sequence of DLG4_2, P78352 (P78352 155-259): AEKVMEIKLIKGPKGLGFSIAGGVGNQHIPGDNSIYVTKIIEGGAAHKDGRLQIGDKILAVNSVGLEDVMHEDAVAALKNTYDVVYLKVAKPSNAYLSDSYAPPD
Sequence of HTRA1, Q92743 (Q92743 360-477): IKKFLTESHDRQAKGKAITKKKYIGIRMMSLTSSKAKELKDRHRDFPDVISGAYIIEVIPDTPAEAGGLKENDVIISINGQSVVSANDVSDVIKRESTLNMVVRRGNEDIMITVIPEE

B1: ARHGAP6, O43182 (peptide)
chain: NPDALPETLV
pKd [1, 28]: 4.09
pKd [2, 28]: below the threshold
pKd [3, 28]: 4.13
pKd [4, 28]: below the threshold
pKd [5, 28]: 4.08
pKd [6, 28]: below the threshold
pKd [7, 28]: below the threshold
pKd [8, 28]: below the threshold
pKd [9, 28]: 3.87
pKd [10, 28]: below the threshold
pKd [11, 28]: 4.06
pKd [12, 28]: 4.11
pKd [13, 28]: 3.89
pKd [14, 28]: below the threshold
pKd [15, 28]: below the threshold
pKd [16, 28]: 4.01
pKd [17, 28]: below the threshold
pKd [18, 28]: 5.33
pKd [19, 28]: below the threshold
pKd [20, 28]: 4.42
pKd [21, 28]: 4.13
pKd [22, 28]: 3.61
pKd [23, 28]: 4.18
pKd [24, 28]: 4.44
pKd [25, 28]: 4.23
pKd [26, 28]: 4.38
pKd [27, 28]: 3.85

B2: U2AF2, P26368 (peptide)
chain: PDSYHRRDFW
pKd [1, 29]: 3.6
pKd [2, 29]: 3.79
pKd [3, 29]: 3.62
pKd [4, 29]: below the threshold
pKd [5, 29]: below the threshold
pKd [6, 29]: 4.08
pKd [7, 29]: below the threshold
pKd [8, 29]: below the threshold
pKd [9, 29]: below the threshold
pKd [10, 29]: below the threshold
pKd [11, 29]: below the threshold
pKd [12, 29]: 3.89
pKd [13, 29]: below the threshold
pKd [14, 29]: below the threshold
pKd [15, 29]: below the threshold
pKd [16, 29]: below the threshold
pKd [17, 29]: below the threshold
pKd [18, 29]: below the threshold
pKd [19, 29]: below the threshold
pKd [20, 29]: below the threshold
pKd [21, 29]: 4.14
pKd [22, 29]: below the threshold
pKd [23, 29]: below the threshold
pKd [24, 29]: below the threshold
pKd [25, 29]: below the threshold
pKd [26, 29]: 3.49
pKd [27, 29]: below the threshold

Now from value to binder:

pKd [1, 28]: below the threshold
pKd [2, 28]: below the threshold
pKd [3, 28]: 4.68
pKd [4, 28]: below the threshold
pKd [5, 28]: below the threshold
pKd [6, 28]: below the threshold
pKd [7, 28]: 4.49
pKd [8, 28]: below the threshold
pKd [9, 28]: 3.78
pKd [10, 28]: below the threshold
pKd [11, 28]: 4.86
pKd [12, 28]: 3.48
pKd [13, 28]: 3.9
pKd [14, 28]: below the threshold
pKd [15, 28]: below the threshold
pKd [16, 28]: 4.54
pKd [17, 28]: below the threshold
pKd [18, 28]: 4.95
pKd [19, 28]: 4.45
pKd [20, 28]: 4.85
pKd [21, 28]: below the threshold
pKd [22, 28]: below the threshold
pKd [23, 28]: 4.97
pKd [24, 28]: 4.69
pKd [25, 28]: 4.88
pKd [26, 28]: 4.33
pKd [27, 28]: below the threshold
B3: ARHGEF26, Q96DR7 (peptide)
chain: GRLLGLETNV

pKd [1, 30]: below the threshold
pKd [2, 30]: below the threshold
pKd [3, 30]: 4.2
pKd [4, 30]: below the threshold
pKd [5, 30]: 4.46
pKd [6, 30]: below the threshold
pKd [7, 30]: 4.92
pKd [8, 30]: below the threshold
pKd [9, 30]: 4.1
pKd [10, 30]: below the threshold
pKd [11, 30]: 5.04
pKd [12, 30]: 3.63
pKd [13, 30]: below the threshold
pKd [14, 30]: below the threshold
pKd [15, 30]: below the threshold
pKd [16, 30]: 4.06
pKd [17, 30]: below the threshold
pKd [18, 30]: 4.64
pKd [19, 30]: 3.74
pKd [20, 30]: 4.81
pKd [21, 30]: 4.6
pKd [22, 30]: below the threshold
pKd [23, 30]: 4.49
pKd [24, 30]: 4.94
pKd [25, 30]: below the threshold
pKd [26, 30]: below the threshold
pKd [27, 30]: 4.05
B4: ARVCF, O00192 (peptide)
chain: AKPQPVDSWV

pKd [1, 28]: below the threshold
pKd [2, 28]: below the threshold
pKd [3, 28]: 4.22
pKd [4, 28]: below the threshold
pKd [5, 28]: below the threshold
pKd [6, 28]: below the threshold
pKd [7, 28]: 4.64
pKd [8, 28]: below the threshold
pKd [9, 28]: below the threshold
pKd [10, 28]: below the threshold
pKd [11, 28]: 5.17
pKd [12, 28]: 4.18
pKd [13, 28]: below the threshold
pKd [14, 28]: below the threshold
pKd [15, 28]: below the threshold
pKd [16, 28]: 4.65
pKd [17, 28]: below the threshold
pKd [18, 28]: 3.82
pKd [19, 28]: 3.83
pKd [20, 28]: 4.56
pKd [21, 28]: below the threshold
pKd [22, 28]: below the threshold
pKd [23, 28]: 4.28
pKd [24, 28]: 4.65
pKd [25, 28]: 3.96
pKd [26, 28]: below the threshold
pKd [27, 28]: below the threshold
B5: KCNJ12, Q14500 (peptide)
chain: QRPYRRESEI
